Measurements taken from patent EP1817050B1.

Assays:
[1] = biological target: IGF-II receptor (human, in membrane extracts of postmortem frontal lobe tissue) (human) (UniProt P11717); test: saturation binding of [125I]-IGF-II to pooled human frontal lobe extracts, Braak 6; one-site fit/Scatchard
[2] = biological target: IGF-II receptor (human, in membrane extracts of postmortem frontal lobe tissue) (human) (UniProt P11717); test: saturation binding of [125I]-IGF-II to pooled human frontal lobe extracts, Braak 0-1; one-site fit/Scatchard
[3] = biological target: IGF-II receptor (human, in membrane extracts of postmortem frontal lobe tissue) (human) (UniProt P11717); test: saturation binding of [125I]-IGF-II to pooled human frontal lobe extracts, Braak 2-3; one-site fit/Scatchard
[4] = biological target: IGF-II receptor (human, in membrane extracts of postmortem frontal lobe tissue) (human) (UniProt P11717); test: saturation binding of [125I]-IGF-II to pooled human frontal lobe extracts, Braak 4-5; one-site fit/Scatchard

Sequence of IGF-II receptor (human, in membrane extracts of postmortem frontal lobe tissue) (human) (P11717 41-2491 limits assumed): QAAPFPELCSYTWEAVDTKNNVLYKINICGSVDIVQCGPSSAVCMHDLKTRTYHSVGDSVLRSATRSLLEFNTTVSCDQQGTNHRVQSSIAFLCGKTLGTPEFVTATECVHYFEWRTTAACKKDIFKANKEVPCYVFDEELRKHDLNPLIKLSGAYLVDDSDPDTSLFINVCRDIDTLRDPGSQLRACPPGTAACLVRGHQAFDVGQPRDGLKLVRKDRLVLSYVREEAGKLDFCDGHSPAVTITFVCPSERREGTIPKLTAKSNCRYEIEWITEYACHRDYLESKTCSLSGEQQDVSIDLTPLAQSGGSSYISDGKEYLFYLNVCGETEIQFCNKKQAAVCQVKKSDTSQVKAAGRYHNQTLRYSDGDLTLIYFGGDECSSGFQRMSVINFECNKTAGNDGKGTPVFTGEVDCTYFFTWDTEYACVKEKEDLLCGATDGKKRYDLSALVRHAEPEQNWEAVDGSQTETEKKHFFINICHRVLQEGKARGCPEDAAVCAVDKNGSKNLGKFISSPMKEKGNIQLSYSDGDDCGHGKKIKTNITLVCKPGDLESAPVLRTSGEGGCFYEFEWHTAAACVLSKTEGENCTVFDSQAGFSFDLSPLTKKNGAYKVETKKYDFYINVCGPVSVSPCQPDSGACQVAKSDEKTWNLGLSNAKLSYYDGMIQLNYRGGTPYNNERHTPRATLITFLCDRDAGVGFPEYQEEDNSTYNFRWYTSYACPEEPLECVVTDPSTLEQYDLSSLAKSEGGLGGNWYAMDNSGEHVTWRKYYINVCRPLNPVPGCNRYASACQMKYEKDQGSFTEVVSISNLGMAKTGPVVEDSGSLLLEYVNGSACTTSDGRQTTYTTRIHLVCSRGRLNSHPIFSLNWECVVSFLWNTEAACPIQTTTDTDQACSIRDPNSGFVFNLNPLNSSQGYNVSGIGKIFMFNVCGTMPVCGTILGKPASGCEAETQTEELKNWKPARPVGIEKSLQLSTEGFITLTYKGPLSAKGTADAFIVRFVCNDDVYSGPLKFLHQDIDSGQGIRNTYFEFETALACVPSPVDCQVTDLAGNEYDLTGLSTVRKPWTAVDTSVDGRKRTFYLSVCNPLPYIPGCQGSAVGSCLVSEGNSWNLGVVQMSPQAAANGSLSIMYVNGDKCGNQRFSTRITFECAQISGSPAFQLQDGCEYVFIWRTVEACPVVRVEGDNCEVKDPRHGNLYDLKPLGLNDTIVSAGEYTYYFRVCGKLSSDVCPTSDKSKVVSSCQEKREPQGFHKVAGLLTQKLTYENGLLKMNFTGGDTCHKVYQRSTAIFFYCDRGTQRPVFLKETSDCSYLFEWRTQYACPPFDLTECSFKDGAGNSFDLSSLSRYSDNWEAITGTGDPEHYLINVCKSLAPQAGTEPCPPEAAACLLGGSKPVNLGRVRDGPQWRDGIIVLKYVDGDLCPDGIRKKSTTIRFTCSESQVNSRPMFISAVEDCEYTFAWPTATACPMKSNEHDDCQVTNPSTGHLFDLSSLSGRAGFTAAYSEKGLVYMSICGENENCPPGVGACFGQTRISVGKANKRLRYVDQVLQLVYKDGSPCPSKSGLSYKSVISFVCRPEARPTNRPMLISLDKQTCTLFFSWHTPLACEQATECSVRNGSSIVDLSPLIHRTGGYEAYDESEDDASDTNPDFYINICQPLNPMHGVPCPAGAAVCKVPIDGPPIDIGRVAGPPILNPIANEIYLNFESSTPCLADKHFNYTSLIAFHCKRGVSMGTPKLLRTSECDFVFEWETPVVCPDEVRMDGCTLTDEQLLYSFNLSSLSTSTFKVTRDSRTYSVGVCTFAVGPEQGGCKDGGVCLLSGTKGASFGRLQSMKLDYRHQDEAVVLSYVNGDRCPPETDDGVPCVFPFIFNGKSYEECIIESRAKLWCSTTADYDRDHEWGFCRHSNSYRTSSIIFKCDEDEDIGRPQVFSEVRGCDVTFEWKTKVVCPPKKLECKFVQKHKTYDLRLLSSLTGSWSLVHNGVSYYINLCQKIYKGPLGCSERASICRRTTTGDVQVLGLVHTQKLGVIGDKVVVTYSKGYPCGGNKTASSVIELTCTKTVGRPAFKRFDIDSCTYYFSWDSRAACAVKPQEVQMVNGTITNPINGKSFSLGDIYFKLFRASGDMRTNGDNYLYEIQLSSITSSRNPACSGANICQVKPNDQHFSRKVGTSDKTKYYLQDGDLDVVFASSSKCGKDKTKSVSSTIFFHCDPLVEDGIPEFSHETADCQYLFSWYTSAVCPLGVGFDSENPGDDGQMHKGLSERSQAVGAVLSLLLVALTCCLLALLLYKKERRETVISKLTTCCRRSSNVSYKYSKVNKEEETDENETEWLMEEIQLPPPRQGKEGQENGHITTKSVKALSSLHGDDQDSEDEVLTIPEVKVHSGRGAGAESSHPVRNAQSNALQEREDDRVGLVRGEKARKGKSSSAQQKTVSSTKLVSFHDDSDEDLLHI

BMAX (fmol/mg protein) [1]: 4.71
BMAX (fmol/mg protein) [2]: 16.8
BMAX (fmol/mg protein) [3]: 12.5
BMAX (fmol/mg protein) [4]: 8.14
Substance: [125I]-labeled IGF-II (ligand)
